Data taken from the DeepSol protein solubility set.

test: soluble on expression in E. coli; label from the status in PepcDB or PDB records

Which “soluble on expression in E. coli” value does the source give for “MSVSNTQFNPFGNHETNLKELKLQLEQVTSKSVKQIEDVKGLTVTLERLTEIAKNIPETAIQSLISEIVASFPKCVSVLGEKKPEDLRTASFISLLRRLNQFIQTIADRVTKPFDSDVLKEWAPIFVSLLTGKHSALKENGALLWKKTFGTVKNNLICPEDLRGILDSMPKRYAISVPQSTSSKTDGYFSDDEAMDGLPTSSAAGAGNNFKFPKIKTEVIESQSSFQFSQQPVADEVAEKLLKEQKLKAEETQSPKTSSTETSRRRTSRMALIDEDSCDFVAILTSPATRKNRLTDRQKEKLEEVSGPRTTINYMDEESQNGFVKTEQFKKALTAMNFEVEDESVSAPTSKNSENPEILPIDEIPTVHVESAKSDKTPEPVKKTNKRRRLFHDQPVSAFATESSRKPEIANNDLGEILEKLPEHASTKSPEQKRGRKDSAISCETSDDISDSMKSNDSRTIITQQEHAVEQKSRKKPGRPKNSRNRSETTRKSGRLSAIQNNACVTSESSMSNETGDVEKTDDKKESVQNIPEQEAAEKKEVDTTISDKRLSDTEEAIEENIVKSPPKTPRTPSILRVGKRMSTSSSPMTERKRNRVHFGEESLPVDVVSSPLTPRRRPLAEAAKNPFVEATVAASNSNLSDIQSSTNDSSFYPTLADCRDKIDRILPNLVTLCMKTVLDSAKRSLSAVGVKTVGDFASLSKSDIEKFTWIKGRVVGARNVLMQYEKTRNAERREEIVDGSEEKPMDVADAIPPEIEAVSPSSKDSQSVPMETKDNSPPANEVIAQELPKASPISNTPSVESTQPALNVQKTPEASQSPASPISSNTGSSTFTVDPTPVQKDLSVVLSRKNLAPIFCGGLKNFKKEQLCPQKQCEKAKDAEKSFVEDGRVLHRICVSLSNAHTQNHWPSENSSKLLSNINKASILFKNLVQTRGAGDWDDTDLENDDLSTAESDVATDVDVLVAVYKRFSRHHTSPMANNLPWRSVMECVNEAACLLESIFLTRAPNKGSM” here?
Its value is “not soluble”.

For “MDFYYLPGSAPCRAVQMTAAAVGVELNLKLTDLMKGEHMKPEFLKLNPQHCIPTLVDNGFALWESRAIQIYLAEKYGKDDKLYPKDPQKRAVVNQRLYFDMGTLYQRFADYHYPQIFAKQPANPENEKKMKDAVGFLNTFLEGQEYAAGNDLTIADLSLAATIATYEVAGFDFAPYPNVAAWFARCKANAPGYALNQAGADEFKAKFLS”, which “soluble on expression in E. coli” value is on record?
Its value is “soluble”.

Which “soluble on expression in E. coli” value does the source give for “MGKRVLIVDDATNGREAVEKYKELKPDIVTMDITMPEMNGIDAIKEIMKIDPNAKIIVCSAMGQQAMVIEAIKAGAKDFIVNTAAVENPSLITQIAQTFGSQAVVVAIDAKRVDGEFMVFTYSGKKNTGILLRDWVVEVEKRGAGEILLTSIDRDGTKSGYDTEMIRFVRPLTTLPIIASGGAGKMEHFLEAFLAGADAALAASVFHFREIDVRELKEYLKKHGVNVRLEGLLEHHH” here?
The value was “soluble”.

Which “soluble on expression in E. coli” value does the source give for “MSLSIRSLFGGLREKILGKNMKIVFPEGNDERVVRAAARLKFEGLLEPIILGQSEEVRNLLTKLGFADQDYTIINPNEYADFDKMKEAFVEVRKGKATLEDADKMLRDVNYFGVMLVKMGLADGMVSGAIHSTADTVRPALQIIKTKPGISRTSGVFLMNRENTSERYVFADCAINIDPTAQELAEIAVNTAETAKIFDIDPKIAMLSFSTKGSGKAPQVDKVREATEIATGLNPDLALDGELQFDAAFVPETAAIKAPDSAVAGQANTFVFPDLQSGNIGYKIAQRLGMFDAIGPILQGLNKPVNDLSRGSSAEDIYKLAIITAAQAIESQGEGHHHHHH” here?
The value was “soluble”.

Which “soluble on expression in E. coli” value does the source give for “MMLITTSHRPTRRTRSFGHDLERVIPNSLYLTRGKKTIQELLMEAYDRGYERLLIINVWKGNPLKMTFIKVHPEDWGYLGYLYLHGVKLQREMGFKGLNPIREDMPLVITTAKRVGLDHLAFAQVFSELTTGKFVPRGDKSLLSIADRYNTDVLAVIERHPRGIVINFYRLDITKDRPVGPLINVKIWIMEDGRRWDYKEAFGIKVPPRRREFEGKRGEGKNSDLEHHHHHH” here?
The value was “not soluble”.

Which “soluble on expression in E. coli” value does the source give for “FNKDGKFKIVQFTDVHFKYGNPASDVALERIGEVLDAEHPDLVIFTGDVVYSSPADKGMLQVLGQVERRHLPFVVTFGNHDNEQGKTRAELYDLIRGVAGNLLPDRGASPSPDYILTMKSSADASKDAALLYCMDSHSYSSLKDVDGYAWLTFGQVSWYRAQSAAYTARNGGKPYPALAFFHIPLPEYNEAAANENAILRGTRMEKACAPQLNTGMFAAMKEAGDVMGVFVGHDHDNDYAVMWKNILLAYGRFTGGNTEYNHLPNGARVIVLNEGTRTFETWIRQKGGVVDSTSYPSDYVKDDWRKR” here?
Its value is “not soluble”.

With “MTSLVRGQNTPLTSPQLTVTVSGVTPGSVDLMVFQVTTTGNVRSDSDFVFFNQPASPEGAVRLTGPSTVDVDVTKVPHSIDRLRLAVSMDDSAPGSLAAIPGLGVTLGSVSAPALGLTTERAAVLAEIYRRGEQWKIRNVSAGWDTGLKALVTEHGVVVDDAPSHPPAPTYPSTPPAQPPAPVIAPPAPTPTPAPQPRVQRSKITLTKASPTVSLAKGGDTGTMRVNLNWTRGRRGLFGGNGAIDLDLACLYQLNDGSKGVVQALGNAFGDLHYPPYIALDGDDRSGTNAGGENLHINLAHLADFKRILIFAYIYDGTPNWSAADGIVTLYPPHGPEVEVRLDSPDNRARSCAIALLKNERNELTVTREVRYINGTQSDISKAYRWGLKWTAGRK” as the sequence, how does the “soluble on expression in E. coli” value read?
Its value is “not soluble”.

For “MSLTNTNAVELVKEAIDRGAEIILVKVDSKKYVKMSLELVKHFTEFAEGIFVTLNRPYFSLKKMLLKEGVDISKLYFIDCITLQLGGQVIDEERCFYLTSPDPVQLQVTIERAMDLVTVNNRFIYLDSLSTISLYKSFETLVKFLRHLTGKMRLRGFVGTIFTIEKEMDESYYSQISLMVDEVIEVDEGHHHHHH”, which “soluble on expression in E. coli” value is on record?
The value was “soluble”.

For “SKEFFAPQRAGMKLRTFSDIDKYYTEQKKQEYHKEKVRVVAMAQVARERVRVAVNEHLNQKKYATQKLIEENKETIQNSLRQVWQNRFNYLEKARERKALFLKEKSQKASERLLVQNLNNERTLLTRGLLKIDRLEKNEAVLKEKSLIVKQKLKAEKYRKNLLKEMKKVRSQEIYKRHCEEKFVMDMIAFEKACERLQDAKTKVAIVKTNLDFKVPNGLIK”, which “soluble on expression in E. coli” value is on record?
Its value is “soluble”.

With “MGSDKIHHHHHHMSDYNFAYLDEQTKRMIRRAILKGLAIPGYQVPFASREMPMPYGWGTGGVQVSAAALTPDDTFKVIDQGADDTTNAVSIRKFFERTAGVATTEETEKASIIQTRHRIPEADLREDQILVYQVPIPEPLRFLEPRETETRKMHALEEYGLMHVKLYEDISQHGAIATSYAYPVKVEGRYVMDPSPIPKFDNPKMEMAAIQLFGAGREQRIYAVPPYTKVVSLDFEDYPFEATKAEHPCDLCAAEDSYLDEVIVDDQGGRMFVCSDTDYCRSRREAGHVGRLGQNAPLNTGPEAA” as the sequence, how does the “soluble on expression in E. coli” value read?
The value was “not soluble”.

With “SLTITVLQGGNVLDLERGVLLEHHHVVIDGERIVEVTDRPVDLPNAQAIDVRGKTVMPGFIDCHVHVLASNANLGVNATQPNILAAIRSLPILDAMLSRGFTSVRDAGGADWSLMQAVETGLVSGPRIFPSGKALSQTGGHGDFRPRGDLLEPCSCCFRTGAIARVVDGVEGVRLAVREEIQKGATQIKIMASGGVASPTDPIANTQYSEDEIRAIVDEAEAANTYVMAHAYTGRAIARAVRCGVRTIEHGNLVDEAAAKLMHEHGAFVVPTLVTYDALAKHGAEFGMPPESVAKVASVQQKGRESLEIYANAGVKMGFGSDLLGEMHAFQSGEFRIRAEVLGNLEALRSATTVAAEIVNMQGQLGVIAVGAIADLVVLDGNPLEDIGVVADEGARVEYVLQRGTLVKRQAGGR” as the sequence, how does the “soluble on expression in E. coli” value read?
The value was “not soluble”.

Which “soluble on expression in E. coli” value does the source give for “MGSDKIHHHHHHMEETNEMKDSKHLISNIQSQYTRLSKGQKLIAQYILNNYDKVAFMTACKLGETVGVSESTVVRFANALGYSGYPKLQAALQELIKNKLTTVQRVEMAHDYSDDFAILNKVLKSDIDNIRSTLEEIDERAFKEASNKLLRARKIYILGMRSSFVVAQYLGFYLDIILDNVHIIRMDMGDAFEQIVRINEEDVIVAISFPRYSKKSYQIVNYAKEKGAHVISLTDSLFAPVASLADNTLLVKSNMASFVDSLVPALSISNALAISVGMKEKEDIKQHFDDLEQIWKRYSVYE” here?
Its value is “not soluble”.

Which “soluble on expression in E. coli” value does the source give for “MGHHHHHHSHMDALEGESFALSFSSASDAEFDAVVGYLEDIIMDDEFQLLQRNFMDKYYLEFEDTEENKLIYTPIFNEYISLVEKYIEEQLLQRIPEFNMAAFTTTLQHHKDEVAGDIFDMLLTFTDFLAFKEMFLDYRAEKEGRGLDLSSGLVVTSLCKSSSLPASQNNLRH” here?
The value was “soluble”.

With “MGSDKIHHHHHHMGTHTEAMPSTTFAQTAVLSQRQRATLNALSAFPQGAQVSEIAASLGLHVNTVRGHLEELVTKNLVRTAPLPSTGRGRPVLMYHATSATPETVAQEYLSLISLLIQHIDLRQPDEIDEVAKVLGKQWAHSIFADHHLEELNGEQTLITLINYLRHLGFDPEVEKTQDPTTSMLQLRTCPFGSMAHAPLSFVCRAHEGMLSAVEKTGGISFELTPLSAPHQCSIVAQLHGNETIHRQRGEEHPHAGHR” as the sequence, how does the “soluble on expression in E. coli” value read?
The value was “not soluble”.

For “MQVLNTKSETKQENETMQPPYIQERLKSLNDIETQLCSMLQEASQVTFIFGELKRGNESVKPQFENHVKQFYERLDKSTTQLRKEIQLLDENVGTRLLPINVNKKALGQDTEKMEEQLDLLSAILDPSKSK”, which “soluble on expression in E. coli” value is on record?
The value was “soluble”.

With “MSLSDNRSHIEEKYQWDLTSIFPNDQTWEKEEKSLAKDLEIAVKRAGHLLDSSQSLLEITELYLALSRRLEKLYVYASMKNDQDTTVSYYQELQAKATALIAKFNQTFAFYEPEFMLLSTEKYQDFLADCPDLLPYQHFFEKLFKQKKHVLSQKEEALLAEASEIFGAAGETFEILDNADIIFPWVKDETGEEVELSHGNFISLMESKNRKVRQEAYKAMYSIYEQYQHTYAKTLQTNVKVNNFQAKIRNYKSAREAALAANFIPETVYDTLVEAVHNHLPLLQRYVKLRQNVLGLDDLKMYDIYVPLSEMDMTFTYEAALDKAEEVLAIFGRDYAERVHRAFRERWIDVRVNKGKRSGAYSGGSYDTNAFILLNWQDTLDNLFTLVHETGHSLHSTFTRENQPYVYGDYSIFLAEIASTTNENILTETLLKEATDEKQRFAILNHYLDGFKGTVFRQTQFAEFEDLIYKADQAGDVLTSDYLNNLYADLNEKYYGLSKENNPEIQYEWARIPHFYYNFYVYQYATGFAAASFLAHKIVHGNQEDKDKYLNYLKAGNSDYPLNVIAKAGLDMTESTYLDQAFKVFEERLIELEELVEKGIDEGHHHHHH” as the sequence, how does the “soluble on expression in E. coli” value read?
Its value is “soluble”.

With “MGLFDGLLGNATQNNNETAEKELRDVLIPNEKVDMAFTLVRDLIVFTDKRLILVDKQGITGKKVDYKSIPYKSISRFSVETSGHFDLDAELKIWISSTELPSVSLQFRKDKDIVAIQQALAAAVLS” as the sequence, how does the “soluble on expression in E. coli” value read?
The value was “not soluble”.

With “MKIGIVTGIPGVGKSTVLAKVKEILDNQGINNKIINYGDFMLATALKLGYAKDRDEMRKLSVEKQKKLQIDAAKGIAEEARAGGEGYLFIDTHAVIRTPSGYLPGLPSYVITEINPSVIFLLEADPKIILSRQKRDTTRNRNDYSDESVILETINFARYAATASAVLAGSTVKVIVNVEGDPSIAANEIIRSMK” as the sequence, how does the “soluble on expression in E. coli” value read?
Its value is “soluble”.

Which “soluble on expression in E. coli” value does the source give for “AIAPRNNKTSLIQKIASQAYATFTNCSSSAIEDNNKVFLEHQADLVALLSDIRAADLKIAPPTKVSTSSPSVPPVTYMHICETDVFSMGVFLLKSGASIPLHDHPGMHGMLKVLYGKVSIRCYDKLDKAESDTERHFDPPLLAFQGDDVRRAALRSSGQFSELSGPCVLSPFKDNLHEIDAVDGAAAFLDILAPPYDPDDGRDCHYYRVLQTAGKKSEQSGDDEAWLLEIPQPDDFWCGGEPYPGPEVTI” here?
The value was “soluble”.

Which “soluble on expression in E. coli” value does the source give for “ALAETVSDFRLPNGLEVVVIEDHRAPVVTHMVWYRVGAADEPPGHSGIAHFLEHLMFKGTDEMSAGEFSATVEAQGGDDNAFTSWDYTAYFQRVAADRLDLMMKMEADRMRDLQMTEEDVRTERQVVLEERSQRTDSDPGAVFSEQSRAAAYLNHPYGIPIIGWRHEIEQLGREDAFSFYRTYYAPNNAILVVAGDVDPAEVRRMAEEHYGALEPTP” here?
The value was “not soluble”.
